The record followed here is PMC5808563.

Read-outs that look alike come from different tables or passages of the source.

The target in test [1] is integrin β3 transmembrane-cytoplasmic domain (TM/tail, residues 685-762) embedded in Nanodiscs (UniProt P05106). The test can be described thus: FRET or BRET.
Test [2] has the same target. The experiment in a line: FRET or BRET. This is another data set of the same source. (BRET reads energy transfer from a luciferase to a nearby fluorophore.)

UniProt P05106, sequence (P05106 711-788): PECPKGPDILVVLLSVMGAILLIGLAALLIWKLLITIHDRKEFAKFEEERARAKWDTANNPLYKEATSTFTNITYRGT

Consider “talin-1 head domain (THD) I398C, Uniblue A labelled (from UniProt P26039 1-433) (domain or fragment)”, for which, in test [1], the Kd came to 580 nM. In test [2], this substance came in with a dissociation constant Kd of 740 nM and a fold increase in affinity over 50% DMPS Nanodiscs without the integrin tail of 2 fold.

In general, Kd refers to the constant that tells how readily two partners part at equilibrium. Read a low Kd as higher affinity.
